Measured values published in patent publication US20230270832A1, “MAGEA1 IMMUNOGENIC PEPTIDES, BINDING PROTEINS RECOGNIZING MAGEA1 IMMUNOGENIC PEPTIDES, AND USES THEREOF” (TScan Therapeutics, Inc., priority 2021, published 2023).

Key:
[1] = tested on: cancer cells that express MAGEA1; test: T cell recognition assay on cancer cell lines; assay type: cell-based, human; settings: IFNγ release, CD137/CD69 double-positive staining
Method: To detect reactivity to cancer cell lines, wild-type cancer cell lines were seeded in a 96-well flat bottom plate and rested overnight at 37° C. in 5% CO2. On the following day, T cells were thawed, washed in complete RPMI-1640 medium, and added to the wells for an effector to target (E:T) ratio of 1:1 for INFγ measurement or 1:4 for flow cytometry analysis of activation-induced markers. The co-culture was incubated overnight. Cells were then harvested by pipetting, transferred to V-bottom 96-well plates, and centrifuged at 2,000 rpm for 2 minutes. The supernatant was collected for IFNγ measurement using a human IFNγ 3rd generation single-plex assay (Protein Simple). For flow cytometry analysis (Cytoflex S™ instrument, Beckman Coulter), cell pellets were washed with FACS buffer (PBS, 0.5% BSA, 2 mM EDTA) and stained for activation-induced markers, including PE-conjugated anti-CD137 (Miltenyi), AF647-conjugated anti-CD69 (Biolegend), and BV421-conjugated anti-CD8 (BioLegend).
Cancer cell lines were purchased from ATCC (Manassas, Vα.) and HEK293T cells were originally from Takara Bio (Shiga, Japan). All media were supplemented with […], except U266B1 which required 15% FBS, and 1% penicillin and incubated at 37° C. in 5% CO2. A101D (high MAGE-A1 expresing cells; TPM: 359), A2058 (medium MAGE-A1 expresing cells; TPM: 128), HS294T, and HEK293T cells were maintained in complete DMEM. SK-MEL-5 was cultured in complete EMEM, whereas U266B1, NCIH1437 and 786-0 required complete RPMI. Untransduced cancer cells were maintained in preparation for the T cell recognition assay, and 10^6 cells of each cell line were introduced with Incucyte® NucLight™ Red lentivirus reagent (Sartorius, Gottingen, Germany) Positively-labeled cells were selected using 1.5 ug/mL of puromycin over 72 hours.

[2] = tested on: >600,000 protein fragments spanning every wild-type (w.t.) human protein; test: Genome-wide SafetyScan off-target screen; assay type: cell-based; settings: overexpressed 90-aa protein fragments
Method: Primary CD8+ T cells were prepared as described above to express HN-P32-41. Triplicate wells transduced with lentiviral particles to express HN-32-41 combined in fresh complete T cell medium, and expanded until Day 5 in a G-Rex° 10 culture vessel (Wilson Wolf). On Day 5, cells were harvested, and cell concentrations were adjusted to 100 ×10^6 CD3^+ T cells/mL in EasySep buffer (StemCell Inc) and FcBlock solution with CD34 magnetic beads (Miltenyi) for 30 minutes at 4C, washed with EasySep buffer, and separated using a QuadroMACS® Separator and LS columns (Miltenyi). Isolated cells were washed and resuspended in fresh complete T cell medium and expanded in G-Rex®10 flasks (Wilson Wolf) until day 12, at which point cells were frozen in CryoStor® CS10 and stored at liquid nitrogen until use.
CD8+ T cells expressing HN-32-41 were thawed and restimulated (further expanded) by co-culturing T cells with irradiated (60 grays) allogeneic PBMCs in the presence of 0.1 ug/mL anti-CD3 (OKT3, eBioscience) and 50 U/mL recombinant IL-2 (Peprotech) in fresh T cell medium (RPMI 1640 supplemented with 10% heat-inactivated fetal bovine serum (FBS), 100 IU/mL penicillin, 100 μg/mL streptomycin, recombinant human IL-2 [50 U/mL, PeproTech]) in GRex® 100 flasks (Wilson Wolf). 50 U/mL recombinant IL-2 was added to expanding cells every other day until day 6. […]

[3] = tested on: C*07:02 HEK reporter cells that express the indicated full length proteins; test: Full-length ORF validation of putative off-targets in C*07:02 HEK reporter cells; assay type: cell-based, human; settings: co-culture with C*07:02 HEK reporter cells
Method: Hit that validated as targets using 90-mers were advanced to testing against full protein open reading frames (ORFs). ORFs for TLE3 and SLC6A13 were cloned from the ORFeome Collaboration Library (Horizon). LAMB4 intron retention ORF was synthesized (GenScript). These clones were cloned into lentiviral over-expression vectors and delivered to C*07:02 HEK reporter cells by transduction followed by selection with puromycin. Cells were seeded a day before co-culture with T cells expressing HN-32-41 at an E:T ratio of ˜2:1. After 4 hours, the co-cultures were harvested by pipetting and fluorescence of the reporter was detected using a CytoFLEX™ S instrument (Beckman Coulter). The PIGO ORF clone was purchased from Genscript in pcDNA3.1 overexpression vector and delivered by transient transfection using FuGENE6 reagent (Promega). C*07:02 HEK reporter cells were seeded to adhere overnigth, then transiently transfected with the PIGO ORF. The media was refreshed then cells expant overnight. Cells were co-cultured with T cells expressing HN-32-41 at an E:T of ˜2:1. After 4 hours, the co-cultures were harvested by pipetting and fluorescence of the reporter was detected using a CytoFLEX™ S instrument (Beckman Coulter).

B1: TCR 32-41: T cell receptor recognizing MAGEA1 epitope presented by HLA-C*07:02; alpha TRAV27/TRAJ52, beta TRBV12-4/TRBJ1-4; wild type, HM and MGTM sequences listed (protein)
TCR alpha: QLLEQSPQFLSIQEGENLTVYCNSSSVFSSLQWYRQEPGEGPVLLVTVVTGGEVKKLKRLTFQFGDARKDSSLHITAAQPGDTGLYLCAGDESISYGKLTFGQGTILTVHPNIQNPEPAVYQLKDPRSQDSTLCLFTDFDSQINVPKTMESGTFITDKCVLDMKAMDSKSNGAIAWSNQTSFTCQDIFKETNATYPSSDVPCDATLTEKSFETDMNLNFQNLLVMVLRILLLKVAGFNLLMTLRLWSS
TCR beta: DAGVIQSPRHEVTEMGQEVTLRCKPISGHDYLFWYRQTMMRGLELLIYFNNNVPIDDSGMPEDRFSAKMPNASFSTLKIQPSEPRDSAVYFCASSFLGWNEKLFFGSGTQLSVLEDLRNVTPPKVSLFEPSKAEIANKQKATLVCLARGFFPDHVELSWWVNGKEVHSGVCTDPQAYKESNYSYCLSSRLRVSATFWHNPRNHFRCQVQFHGLSEEDKWPEGSPKPVTQNISAEAWGRADCGITSASYQQGVLSATILYEILLGKATLYAVLVSTLVVMAMVKRKNS
recognition of cancer cells [1]: recognize cancer cells that express MAGEA1 | recognition of cancer cells ([1]; listed as TCR 41): recognize | putative off-targets identified in screen [2]: seven potential off-targets | reactivity to putative off-targets as full-length proteins (activation of the reporter, % IFP) [3]: no activation of the reporter, measured as % IFP, except for LAMB4-IR | reactivity to putative off-targets as full-length proteins (activation of the reporter, % IFP) ([3]; listed as TCR41): did not appreciably react with cells expressing putative off-targets
